From paper PMC3810306 come the findings set out here.

The target of the test is human CD47 IgSF domain (human). Description: SPR. For orientation: SPR reads the build-up and loss of mass on a sensor chip optically.

As usually defined, the Kd is the constant that tells how readily two partners part at equilibrium. Low values mean higher affinity, high ones lower affinity. “wild-type human SIRPα allele 1 monomer (V-set Ig domain, domain 1) (domain or fragment)” had a dissociation constant Kd of 300 to 500 nM and a dissociation half-life (t1/2) of 1.8 s. For “high-affinity SIRPα variant CV1 (consensus variant 1) monomer (designed binder)”, the dissociation constant Kd was found to be 0.0111 nM.
